The source of these data is a protein production outcome set (Wang et al. 2014).

A short description of this data set: label from the status in PepcDB records.
As to “LEAPRDLEAKEVTPRTALLTWTEPPVRPAGYLLSFHTPGGQTQEILLPGGITSHQLLGLFPSTSYNARLQAMWGQSLLPPVSTSFTTGGLRI”, the protein production entry is “not failed”.
With “LEEFKNSSKLVAAAEKERLDKHLGIPCNNCKQFPIEGKCYKCTECIEYHLCQECFDSYCHLSHTFTFREKRNQKWRSLEKRADEV”, the protein production entry is “not failed”.
For the sequence “LEIKQLLNIYRDLQLGHFCAFYQPQKHIDSGGVVAFEALARRVIGKGLYEMPDRFFPILEKYHLIPTLTEVMVRDILTFLMTEDAVLQDITIGVNIPGKMLTDGSFYRLLLSVAEEKQAQHALHRLSVEITEHDLIADFDAAKHEIYKLKSLGIRCALDDFGTGYSGYEYLCEIPFDVVKIDGRYIQSLGKAESSTVILQSMISSIKSLSMQVIAEWVDSDQQYQILQEMGCDLVQGYLVSPAISPQQVLNYLHNKLSP”, the protein production result is listed as “failed”.
As for “LERDEQIRLQDDFLFRSQFNIGNIGIAITGIDQKWIKVNPRLCQMLKYSEDELLHMTWKQLTHPDDLDADVAKFEQMLAGNIDNYELDKRFIAKNGSLVYTHMTVACKRTNHQVLLVISGYLDVTAQTLADRE”, the entry is “failed”; as for “LERMVQTRRGLEIIIDAASTLYDFKSMQRLAEGVLTQLASLLNVDCAGILVLRDAGDELAVLAGSGCYSRFIGTTGHSNSLDPDLRQMVEEAFRRRKHEFADHRTVLYIRTGSGREVVVLLQAERELSDTDRSLVEIFGSRLSIAFDNVILYRQLHEANTQ”, “failed”.
With “LEVLVKTLDSQTRTFIVGAQMNVKEFKEHIAASVSIPSEKQRLIYQGRVLQDDKKLQEYNVGGKVIHLVERAP” the entry was “not failed”.
As for “LFSDASGEQRLQKIIGQIKKDGSGKDYDCIIGLSGGVDSSYLAVKVKDLGLRPLVVHVDAGWNSELAVSNIEKIVKYCGFDLHTHVINWEEIRDLQLAYMKAAVANQDVPQDHAFFASMYHFAVKNNIKYILSGGNLATEAVFPDTWHG”, the entry is “failed”; as for “LFTESAKAVLAIAQEEAKYFRHQSVGSEHLLLALVLEPNGIAGKTLRQLNTDTEDIREEIEHLSGYGTMQSPMGNNNLYLPYSPRAKQIFAYAGDEAKRLGAQKIGTEHLLLGLLRDEEILASRILVNLGLSLSKMRQLLLKKMG”, “failed”.
As for “LGINEISSSFFSLLLEILLLESQASLPMLEERVLDWQSSPASSLNSWFSAAPNWAELVLPALQYLAGESRAVPSSFSPFVEFKEKTQQWKLLGQSQDNEKELAALFQLWLETKDQAFCKQENEDSS”, the protein production result is on record as “not failed”.
With “LKGEPDCYALSLESSEQLTLEIPLNDSGSAGLGVSLKGNKSRETGTDLGIFIKSIIHGGAAFKDGRLRMNDQLIAVNGETLLGKSNHEAMETLRRSMSMEGNIRGMIQLVILRR” the entry was “not failed”; with “LLLLHGFTSHPVLTLGPLSERLKEAGWEVRQPALPGHGTRPEDLLKVRFQDWLLAAEEAYLELPEPRGVVGLSMGGLLAAHLAARHPTKALVALAPAFALKNPLAPYLHWLIPRFPGPPSIEDPELRKRNPNYPYFPTRAVLELLALMRKTPEVLPRVKARALVVEAGKDRVVKGVDRYFALLGSPRKDHLVFPESGHDLLLDRDREEVARAVRDWL”, “failed”; with “LLTRQLEKSRQQQQLMVAIALIIRQSLKLEDILSVTVAEVRQFLQADRVLIYQFQPDMSGIVVAESILPGWIATKGAQIEDKCFQDSAGHNHQLKKRAINDIYQAGLTNCYLELLEQFQVKATLIVPIMVTNKSWGLLIAHQCAAPHHWQSFELDLLEQLAVQIAIAIQQASAYEQIQTELQERKRVEATLRESEQRFRQMADTAPVLIWMSGL”, “failed”.
Consider “LPKLREDFKMQNKSVFILGASGETGKVLLKEILGQNLFSKVTLIGRRKLTFEEEAYKNVNQEVVDFEKLDVYASAFQGHDVGFCCLGTTRSKAGAEGFVRVDRDYVLKSAELAKAGGCKHFNLLSSRGADKSSSFLYLQVKGEVEAKVEELKFDRLSVFRPGVLLCDRQESRPGEWLARKFFGSLPDSWASGYAVPVVTVVRAMLNNLVSPSSGQMELLENKAILHLGKDRDVPKL”, for which the protein production result is given as “not failed”.
As for “LPKPGVYYFPWEVSDGHVPEGSTLRTFGRLYLYDMARSLMTLAAPQKPDQCQLLVCTNLVEPFEAHVNFLYMVLGDLERMEGGAFVVRARLLTCVEGMDLSLLEKAILEQRRHLQKRQQPIGDASTLQTPTPAPQSIPSDSLSLEPENRG”, the entry is “failed”.
